Assays:
Experiment in all cases: SPR
[1] = tested on: LDL particle (low-density lipoprotein, apoB-containing), commercial; conditions: 5' disulfide
[2] = tested on: HDL particle (high-density lipoprotein); conditions: 5' disulfide; 100 nM HDL, selection buffer
[3] = tested on: H-LDL particle (small dense LDL); conditions: 5' disulfide, unit inferred
[4] = tested on: L-LDL particle (large fluffy LDL); conditions: 5' disulfide; unit inferred
[5] = 1 nM LDL added to 1% blood serum in selection buffer
[6] = 1 nM LDL, selection buffer, repeat on gold chip
[7] = aptamer on gold chip, unit inferred
[8] = printed kD differs from kd/ka of same row

| Sequence | Kd [1, 5] | Kd [1, 6] | Kd [1, 7] | Kd [2] | Kd [3] | Kd [4] | Kd [3, 8] |
| --- | --- | --- | --- | --- | --- | --- | --- |
| AACTACATGGTATGTGGTGAACTAACCTTAATTTACCCTTGTTTTATCATTTCCATCATAGCTGACGTACAATGTACCC [LDL-A12] | 0.0466 nM | 0.0108 nM | 0.0497 nM | 7.25 nM | 0.023 nM | – | – |
| AACTACATGGTATGTGGTGAACTAAACCATTCTTGTCTCGCATTTTTCTCTTTTATATTATTTGACGTACAATGTACCC [LDL-A38] | 0.0178 nM | 0.0207 nM | 0.0455 nM | 11.5 nM | 0.234 nM | – | – |
| AACTACATGGTATGTGGTGAACTCACGCGCATAACCCTTTTTTCACCTGCCCTTTTAACTAATGACGTACAATGTACCC [LDL-A274] | 0.114 nM | 0.0214 nM | 0.0773 nM | 8.26 nM | – | 0.482 nM | 0.792 nM |
| AACTACATGGTATGTGGTGAACTACCTCGATTTTATATTATTTCGCTTACCAACAACTGCAGAGACGTACAATGTACCC [LDL-A1] | – | 0.00168 nM | – | 9.01 nM | – | 0.0327 nM | 1.23 nM |
| AACTACATGGTATGTGGTGAACTGTCAGCTTCTTCTATATAATTCACCTTGCCTCTCGTTCCTGACGTACAATGTACCC [LDL-A2] | 0.00512 nM | 0.015 nM | 0.0421 nM | 9.69 nM | – | 0.0159 nM | – |

Source: US20200131515
